In patent US9687560B2, “Skin-permeating peptide” (LG Household & Health Care Ltd., priority 2012, dated 2017):
Entries after “also recorded” stand apart in the source; their conditions may differ. Primed or numbered codes have the meaning given here. Ends that are not written are not given here. Dansyl′ = dansyl group

Assays:
[1] = system: porcine skin; test: Skin permeability test of skin permeable peptide derivative (Franz glass cell, fluorescence); type: in vitro ADME
Method: A dansyl group was linked at the C-terminus of each peptide having any one amino acid sequence of SEQ ID NOs. 1 to 10 which were selected in Example 1 so as to synthesize a derivative thereof, and it was intended to examine skin permeability thereof. In detail, each of the peptides was chemically synthesized, and then a dansyl group was added at the C-terminus of each peptide to synthesize a derivative thereof. As a control group, a peptide composed of the amino acid sequence of “[…] NO. 21)” which was prepared by adding a dansyl group at the C-terminus was used. […] Then, each derivative was added at the same concentration to the top of the cell, followed by incubation for 16 hours. After completion of the incubation, the amount of each derivative in the receiver at the bottom was measured using a victor fluorescence meter (340/520) to compare permeation degree (Table 2),

[2] = system: porcine skin; test: Skin retention test of skin permeable peptide derivative (fluorescence); type: binding; details: for Fluorescent intensity (340/520), amount of peptide derivative remaining in porcine skin: 10 minutes incubation with skin, washed ten times; for Level of peptide derivative remaining in the skin (in words): compared to control group / among the 10 peptides
Method: To examine skin binding affinity of the derivatives synthesized in Example 3, the porcine skin was reacted with each of the derivatives, and the amount of the peptide dissolved in the surface was measured. In detail, the porcine skin was cut and put in a 1.5 ml tube, and 500 μl of TBS (1% BSA) was added thereto. […] After incubation, washing was performed using TBS (1% BSA) at 12,000 RPM for 1 minute ten times, and the porcine skin in which the reaction was completed was transferred to a 24-well plate. The amount of the peptide remaining on the surface was measured using a victor fluorescence meter (340/520) and compared (Table 4).

[3] = system: porcine skin; test: Skin retention test of phage including skin permeable peptide (anti-M13 antibody-HRP, absorbance); type: binding; details: compared to control group / among the 10 peptides
Source text: Skin permeation mainly occurs by the mechanism of a diffusion of a substance dissolved in the components of the skin from the outermost layer to the innermost layers. Through this mechanism, an active ingredient can be effectively delivered throughout the skin. The skin surface is composed of corneocytes and intercellular materials. […] In this case, the product first binds to the skin, and then diffuses into the inner layer. Therefore, binding affinity of the selected phages to the skin was measured to examine the superiority of the peptides.
To measure the amount of the phage binding to the porcine skin, anti-M13 antibody-HRP conjugate was used. […] The porcine skin thus cut was put in a 1.5 ml tube, and 500 μl of TBS (1% BSA) was added thereto. […] Thereafter, they were washed using 1% BSA-containing TBS solution at 12,000 RPM for 1 minute 10 times. Subsequently, 500 μl of TBS solution containing anti-M13 antibody-HRP (Horseradish peroxidase) conjugate-containing 1% BSA was added, followed by incubation for 5 minutes. TBS solution containing 1% BSA was added to the culture, followed by washing at 12,000 RPM for 1 minute 10 times. The residual buffer was completely removed, and TMB solution (Tetramethylbenzidine solution, Amersham) was further added. […] Then, absorbance (450 nm) was measured to determine binding affinity between phage-skin.

Substance | Fluorescence intensity (340/520), amount of porcine skin-permeating peptide derivative [1] | Skin permeability of peptide derivative (in words) [1] | Fluorescent intensity (340/520), amount of peptide derivative remaining in porcine skin [2] | Level of peptide derivative remaining in the skin (in words) [2] | Skin binding affinity / skin retention of phage (in words) [3]
S3-1 peptide derivative: peptide NQTDHLFSTFIS (SEQ ID NO. 1) with a dansyl group added at the C-terminus (NQTDHLFSTFIS-{Dansyl′}) | 42000 | relatively excellent skin permeability | 143000 | relatively high level | –
S3-2 peptide derivative: peptide NGSLNTHLAPIL (SEQ ID NO. 2) with a dansyl group added at the C-terminus (NGSLNTHLAPIL-{Dansyl′}) | 70000 | – | 260000 | relatively high level; also recorded: highest level | highest skin binding affinity
S3-3 peptide derivative: peptide GGSIAASELEYY (SEQ ID NO. 3) with a dansyl group added at the C-terminus (GGSIAASELEYY-{Dansyl′}) | 19000 | relatively excellent skin permeability | 47000 | – | –
S3-7 peptide derivative: peptide ELKQVVISDINH (SEQ ID NO. 4) with a dansyl group added at the C-terminus (ELKQVVISDINH-{Dansyl′}) | 25000 | relatively excellent skin permeability | 98000 | relatively high level | –
S3-8 peptide derivative: peptide MVRDHPGLSGWT (SEQ ID NO. 5) with a dansyl group added at the C-terminus (MVRDHPGLSGWT-{Dansyl′}) | 22000 | relatively excellent skin permeability | 100000 | relatively high level | –
S3-9 peptide derivative: peptide TSGISINKLPHT (SEQ ID NO. 6) with a dansyl group added at the C-terminus (TSGISINKLPHT-{Dansyl′}) | 18000 | relatively excellent skin permeability | 47000 | – | –
S4-4 peptide derivative: peptide IFAALDYNLGRH (SEQ ID NO. 7) with a dansyl group added at the C-terminus (IFAALDYNLGRH-{Dansyl′}) | 4400 | – | 13200 | – | –
S4-7 peptide derivative: peptide DMKWTLKEWMTH (SEQ ID NO. 8) with a dansyl group added at the C-terminus (DMKWTLKEWMTH-{Dansyl′}) | 8600 | – | 37600 | – | –
S4-9 peptide derivative: peptide QIEKHVYFNASQ (SEQ ID NO. 9) with a dansyl group added at the C-terminus (QIEKHVYFNASQ-{Dansyl′}) | 16000 | relatively excellent skin permeability | 56000 | – | –
S4-10 peptide derivative: peptide TNIPSLSGILMK (SEQ ID NO. 10) with a dansyl group added at the C-terminus (TNIPSLSGILMK-{Dansyl′}) | 9000 | – | 25000 | – | –
